Molecular target: slac1_arath SLAC1 (UniProt Q9LD83)
Sequence (Q9LD83 whole entry): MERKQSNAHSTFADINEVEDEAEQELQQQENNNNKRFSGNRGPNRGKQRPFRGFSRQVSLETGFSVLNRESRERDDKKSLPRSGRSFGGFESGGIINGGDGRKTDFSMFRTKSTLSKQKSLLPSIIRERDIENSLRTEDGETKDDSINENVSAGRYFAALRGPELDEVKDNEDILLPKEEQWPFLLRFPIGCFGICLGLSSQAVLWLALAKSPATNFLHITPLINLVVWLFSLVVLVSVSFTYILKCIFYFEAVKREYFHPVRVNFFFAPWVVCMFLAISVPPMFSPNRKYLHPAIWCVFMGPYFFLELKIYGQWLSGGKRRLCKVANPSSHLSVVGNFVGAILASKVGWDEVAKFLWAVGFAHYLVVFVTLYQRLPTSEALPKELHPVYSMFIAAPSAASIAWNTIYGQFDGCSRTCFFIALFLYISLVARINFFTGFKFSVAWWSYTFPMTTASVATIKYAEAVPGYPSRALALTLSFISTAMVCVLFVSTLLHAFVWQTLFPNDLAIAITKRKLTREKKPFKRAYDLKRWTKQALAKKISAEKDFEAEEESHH

Calcium-dependent protein kinase 23 (Arabidopsis thaliana (Mouse-ear cress)), Q9M101 D193A, sequence (Q9M101 whole entry D193A): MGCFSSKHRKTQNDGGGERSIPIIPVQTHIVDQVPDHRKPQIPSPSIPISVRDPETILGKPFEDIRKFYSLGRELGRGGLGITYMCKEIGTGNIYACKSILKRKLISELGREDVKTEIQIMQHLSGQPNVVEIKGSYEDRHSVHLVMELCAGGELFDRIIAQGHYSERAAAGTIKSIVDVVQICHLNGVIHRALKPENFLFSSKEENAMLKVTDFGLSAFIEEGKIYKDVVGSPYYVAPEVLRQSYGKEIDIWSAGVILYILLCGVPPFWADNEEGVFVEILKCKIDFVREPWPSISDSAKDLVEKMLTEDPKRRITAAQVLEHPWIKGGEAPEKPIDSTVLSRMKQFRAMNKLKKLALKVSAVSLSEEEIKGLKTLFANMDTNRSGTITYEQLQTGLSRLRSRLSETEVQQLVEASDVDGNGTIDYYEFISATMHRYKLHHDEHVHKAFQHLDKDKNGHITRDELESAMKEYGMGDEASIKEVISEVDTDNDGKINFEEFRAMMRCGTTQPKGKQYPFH

## Calcium-dependent protein kinase 23 (Arabidopsis thaliana (Mouse-ear cress)), Q9M101 D193A
  effect of a mutation on the interaction: disrupting interaction

From IntAct's records for PubMed 20385816
